What was measured:
[1] = biological target: Streptococcus thermophilus Rgg3 (S. thermophilus); experiment: cryo-EM structure
[2] = biological target: Streptococcus dysgalactiae Rgg2 (S. dysgalactiae); experiment: crystal structure
[3] = biological target: T1, Rgg3St (Streptococcus thermophilus, UniProt Q5M4D0 1-284); experiment: X-ray crystallography
T1 sequence: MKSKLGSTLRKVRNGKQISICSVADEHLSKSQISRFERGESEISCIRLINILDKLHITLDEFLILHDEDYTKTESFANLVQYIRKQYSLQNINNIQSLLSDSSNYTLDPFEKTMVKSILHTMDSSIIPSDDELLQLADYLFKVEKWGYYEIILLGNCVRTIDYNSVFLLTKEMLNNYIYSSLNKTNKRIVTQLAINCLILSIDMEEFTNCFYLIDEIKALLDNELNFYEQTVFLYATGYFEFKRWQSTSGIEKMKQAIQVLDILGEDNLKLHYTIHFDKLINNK

Molecule: Streptococcus thermophilus Rgg3 (natural protein)
- stoichiometry N [1]: 2

Molecule: Streptococcus dysgalactiae Rgg2 (natural protein)
- stoichiometry N [2]: 2

B1: Rgg3 box (pSHP3DNA) (dsDNA)
DNA 1: CATAATTTTCCCATTTCCCCAACAAAAAAG
DNA 2: TTTTTGTTGGGGAAATGGGAAAATTATGCT
- binding result [3]: binds
